Source: article PMC6279372 (The Journal of Cell Biology, 2018)

Biological target: the molecule itself
Assay: nonreducing SDS-PAGE

B1: His6-SipA^1-242 (domain or fragment)
chain: MVTSVRTQPPVIMPGMQTEIKTQATNLAANLSAVRESATATLSGEIKGPQLEDFPALIKQASLDALFKCGKDAEALKEVFTNSNNVAGKKAIMEFAGLFRSALNATSDSPEAKTLLMKVGAEYTAQIIKDGLKEKSAFGPWLPETKKAEAKLENLEKQLLDIIKNNTGGELSKLSTNLVMQEVMPYIASCIEHNFGCTLDPLTRSNLTHLVDKAAAKAVEALDMCHQKLTQEQGTSVGREAR
B1: binds.
